# Reference: patent publication US20030120051A1 (SUGEN, published 2003)
# T1: rat contactin (clone F8; p140 of GH3 cells) (rat, UniProt Q63198 21-1001, GPI-anchored)
# T1 construct: whole, on cells; On transfected COS7 cells, on GH3 cells, in solubilized GH3 membranes or in rat brain membranes, as the entry says; also called rat homologue of contactin; F3/F11
# T1 sequence (looked up): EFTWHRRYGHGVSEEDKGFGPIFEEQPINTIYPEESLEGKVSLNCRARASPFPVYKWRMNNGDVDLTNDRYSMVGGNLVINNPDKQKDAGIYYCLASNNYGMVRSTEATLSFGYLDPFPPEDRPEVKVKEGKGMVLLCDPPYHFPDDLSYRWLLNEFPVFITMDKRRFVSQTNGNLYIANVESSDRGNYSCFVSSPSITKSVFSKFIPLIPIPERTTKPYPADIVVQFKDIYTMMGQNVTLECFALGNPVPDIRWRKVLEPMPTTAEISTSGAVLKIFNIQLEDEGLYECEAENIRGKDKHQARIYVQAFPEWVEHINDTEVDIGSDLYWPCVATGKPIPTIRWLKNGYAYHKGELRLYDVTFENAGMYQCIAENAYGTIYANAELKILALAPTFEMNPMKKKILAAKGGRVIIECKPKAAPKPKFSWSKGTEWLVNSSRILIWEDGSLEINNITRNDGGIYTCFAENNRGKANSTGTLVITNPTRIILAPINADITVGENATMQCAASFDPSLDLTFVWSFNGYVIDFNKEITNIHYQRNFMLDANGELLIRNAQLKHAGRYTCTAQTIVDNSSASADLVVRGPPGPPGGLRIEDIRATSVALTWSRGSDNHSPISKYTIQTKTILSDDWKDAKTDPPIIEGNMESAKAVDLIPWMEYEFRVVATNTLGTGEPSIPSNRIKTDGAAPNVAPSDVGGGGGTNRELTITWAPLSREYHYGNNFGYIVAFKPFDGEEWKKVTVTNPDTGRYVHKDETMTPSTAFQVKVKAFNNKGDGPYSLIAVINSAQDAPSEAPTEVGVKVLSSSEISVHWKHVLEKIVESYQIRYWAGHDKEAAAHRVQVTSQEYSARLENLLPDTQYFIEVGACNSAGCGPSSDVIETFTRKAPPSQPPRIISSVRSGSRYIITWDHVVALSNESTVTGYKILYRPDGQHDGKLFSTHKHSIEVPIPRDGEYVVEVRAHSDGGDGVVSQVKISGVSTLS
# T2: human contactin of IMR-32 neuroblastoma cells (140 kDa protein) (human, UniProt Q12860 21-993, GPI-anchored)
# T2 construct: whole, on cells; also called p140
# T2 sequence (looked up): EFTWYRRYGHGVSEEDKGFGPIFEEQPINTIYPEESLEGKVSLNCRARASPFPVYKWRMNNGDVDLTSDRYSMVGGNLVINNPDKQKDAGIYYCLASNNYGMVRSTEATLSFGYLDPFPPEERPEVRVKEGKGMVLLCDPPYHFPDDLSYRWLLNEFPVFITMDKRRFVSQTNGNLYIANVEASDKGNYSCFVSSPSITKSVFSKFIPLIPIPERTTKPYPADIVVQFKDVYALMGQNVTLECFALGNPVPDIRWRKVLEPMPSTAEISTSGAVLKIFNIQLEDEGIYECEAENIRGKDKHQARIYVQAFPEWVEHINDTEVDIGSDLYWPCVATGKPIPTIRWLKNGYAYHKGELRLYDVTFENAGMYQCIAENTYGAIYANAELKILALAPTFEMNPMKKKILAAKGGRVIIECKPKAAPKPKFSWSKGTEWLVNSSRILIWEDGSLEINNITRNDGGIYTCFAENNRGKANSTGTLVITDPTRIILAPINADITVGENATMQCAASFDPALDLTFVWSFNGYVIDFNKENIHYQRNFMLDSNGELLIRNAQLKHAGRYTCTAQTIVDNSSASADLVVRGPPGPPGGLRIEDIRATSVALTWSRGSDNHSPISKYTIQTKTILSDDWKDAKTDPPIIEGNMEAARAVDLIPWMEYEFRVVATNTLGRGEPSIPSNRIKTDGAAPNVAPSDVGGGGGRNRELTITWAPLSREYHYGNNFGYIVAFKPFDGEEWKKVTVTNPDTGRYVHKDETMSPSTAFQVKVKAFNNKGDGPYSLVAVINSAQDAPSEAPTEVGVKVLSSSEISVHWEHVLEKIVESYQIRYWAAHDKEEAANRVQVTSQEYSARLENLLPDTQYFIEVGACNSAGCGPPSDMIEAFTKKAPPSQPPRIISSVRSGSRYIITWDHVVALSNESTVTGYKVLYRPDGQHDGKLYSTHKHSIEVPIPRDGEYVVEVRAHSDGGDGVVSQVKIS
# B1: βF-Fc (FNIII domain of RPTPβ fused to human IgG1-Fc) (Fc fusion)
# chain: not shown
# notes: domain: FNIII; also called the FNIII domain alone; fibronectin domain alone; not shown: human IgG1 Fc (vector pCNγ1)
# Columns and labels:
# [1] = biological target: T1, rat contactin (clone F8; p140 of GH3 …); test: cross-linking (DTSSP) on GH3 cells, protein A precipitation, SDS-PAGE
# Protocol: (§1) Cells were incubated for four hours with medium containing, the different Fc-fusion proteins. Following three washes with cold PBS/Ca (1 mM CaCl₂ in PBS), the cells were incubated for additional 30 minutes with PBS/Ca containing 1 mM DTSSP (3,3′-Dithiobis[sulfosuccinimidyl--propionate], Pierce, Rockford, Ill.). Free cross-linker was removed by additional PBS wash followed by quenching with 100 mM glycine in TBS for 10 minutes at 4° C. Cell lysates were made in SBN lysis buffer (Peles et al., 1991, EMBO J., 10:2077-2086), and Sepharose-protein A was added to the cleared lysates. Following two hours incubation at 4° C., the beads were washed three times with HNTG buffer (Peles et al., 1991, EMBO J., 10:2077-2086), and the bound proteins were eluted by adding SDS PAGE sample buffer containing 5% β-mercaptoethanol and further incubation for 10 minutes at 95° C.
# (§2) To characterize ligands for RPTPβ, a reversible cross-linker ([…]) was used, and proteins were sought that specifically bound to βC-Fc. Two of the cell lines that bound βC-Fc (IMR32 and GH3), as well as COS7 cells as a control, were allowed to react with the fusion proteins containing the FNIII or the CAH domains followed by cross-linking and precipitation of the complexes. […] No reactivity was detected in control cells or in cells incubated with βF-Fc. […]
# [2] = biological target: T2, human contactin of IMR-32 neuroblastoma …; test: cross-linking (DTSSP) on IMR-32 cells, protein A precipitation, SDS-PAGE
# Protocol: as §1, §2
binder,measurement,setting,value
B1,binding result,[1],no binding
same,binding result,[2],no binding
